In test [1] the target is T1, SF3B1 K700E peptide on HLA-B*40:02 (human).
T1 peptide: QEVRTISAL
The test is described as follows: killing. As to the method:
(§1) LCL were pulsed with QEVRTISAL (SEQ ID NO: 1) peptide at 1000 ng/ml prior to co-culture (>5 biological replicates per HLA). […] The tested peptides include […] (SEQ ID NO: 50), […] (SEQ ID NO: 64), and […] (SEQ ID NO: 65). QEVRTISAL (SEQ ID NO: 1) peptide and the wild-type equivalent QKVRTISAL (SEQ ID NO: 2) were included as controls (3 technical replicate experiments). […] For all experiments, mean and standard error of the mean (SEM) are shown.
(§2) Cytotoxicity was measured in short-term (4-hour) assays using 51Cr-labeled target cells. Briefly, target cells were labeled with ⁵¹Cr overnight (cell lines) or for 6 hours (primary leukemia) at 37° C. and 5% CO₂. Effector cells were added to labeled target cells and incubated for 4 hours. After co-incubation, supernatant was harvested for γ-counting. Specific lysis was calculated using a standard formula. Targets used included autologous LCL with and without peptides in varying concentrations. All targets were washed to remove excess 51Cr and residual interferon-γ or peptide before co-culture initiation.

Test [2] has as its target T2, SF3B1 K700E epitope with alanine at position 1 peptide on HLA-B*40:01 (human).
T2 peptide: AEVRTISAL
The test is described as follows: killing. As to the method: as §1, §2

Test [3] concerns the target T3, SF3B1 K700E epitope with valine at position 8 peptide on HLA-B*40:01 (human).
T3 peptide: QEVRTISVL
The test is described as follows: killing. As to the method:
as §1, §2

Test [4] concerns the target T4, SF3B1 K700E epitope with alanine at position 4 peptide on HLA-B*40:01 (human).
T4 peptide: QEVATISAL
The test is described as follows: killing. How it is done: as §1, §2

For test [5], the target named is T5, SF3B1 K700E epitope with alanine at position 9 peptide on HLA-B*40:01 (human).
T5 peptide: QEVRTISAA
The test is described as follows: killing. As to the method: as §1, §2

Test [6] concerns the target T6, SF3B1 K700E epitope with alanine at position 3 peptide on HLA-B*40:01 (human).
T6 peptide: QEARTISAL
The test is described as follows: killing. How it is done: as §1, §2

The target of test [7] is T7, spermatogenesis-associated protein 1 (SPATA1) peptide on HLA-B*40:01 (human).
T7 peptide: VEDRTIRQL
The test is described as follows: killing. As to the method:
as §1, §2

The target of test [8] is T8, Gem-associated protein 5 (GEMIN5) peptide on HLA-B*40:01 (human).
T8 peptide: IEPRTIFCL
The test is described as follows: killing. As to the method: as §1, §2

Test [9] addresses T9, SF3B1 K700E epitope with glycine at position 8 peptide on HLA-B*40:01 (human).
T9 peptide: QEVRTISGL
The test is described as follows: killing. How it is done: as §1, §2

For test [10], the target named is T10, mitochondrial trifunctional enzyme subunit alpha (HADHA) peptide on HLA-B*40:01 (human).
T10 peptide: PEERTIEYL
The test is described as follows: killing. How it is done: as §1, §2

In test [11] the target is T11, SF3B1 K700E epitope with alanine at position 2 peptide on HLA-B*40:01 (human).
T11 peptide: QAVRTISAL
The test is described as follows: killing. As to the method:
as §1, §2

In test [12] the target is T12, alkylglycerone-phosphate synthase (AGPS) peptide on HLA-B*40:01 (human).
T12 peptide: DETRTIISL
The test is described as follows: killing. As to the method:
as §1, §2

The target in test [13] is T13, SF3B1 K700E epitope with alanine at position 7 peptide on HLA-B*40:01 (human).
T13 peptide: QEVRTIAAL
The test is described as follows: killing. How it is done: as §1, §2

Test [14] has as its target T14, SF3B1 wild-type peptide on HLA-B*40:01 (human).
T14 peptide: QKVRTISAL
The test is described as follows: killing. As to the method: as §1, §2

Test [15] has as its target T15, SF3B1 K700E epitope with alanine at position 5 peptide on HLA-B*40:01 (human).
T15 peptide: QEVRAISAL
The test is described as follows: killing. How it is done:
as §1, §2

Test [16] has as its target T16, SF3B1 K700E epitope with alanine at position 6 peptide on HLA-B*40:01 (human).
T16 peptide: QEVRTASAL
The test is described as follows: killing. As to the method:
as §1, §2

The target in test [17] is T17, CBFB-MYH11 type A peptide on HLA-B*40:01 (human).
T17 peptide: REEMEVHEL
The test is described as follows: killing. As to the method:
as §1, §2

Test [18] has as its target T18, SF3B1 K700E peptide on HLA-B*40:01 (human).
T18 peptide: QEVRTISAL
The test is described as follows: peptide titration 51Cr-release assay; clone 24 against autologous LCL pulsed with varying peptide concentrations; T cell clone or line. How it is done:
as §1, §2

B1: TCR24 (SF3B1^K700E/B*40:01-specific TCR from clone 24) (TCR, V domains shown)
Valpha: AQSVTQPDIHITVSEGASLELRCNYSYGATPYLFWYVQSPGQGLQLLLKYFSGDTLVQGIKGFEAEFKRSQSSFNLRKPSVHWSDAAEYFCAVAAKDSSYKLIFGSGTRLLVRP
Vbeta: SAVISQKPSRDICQRGTSLTIQCQVDSQVTMMFWYRQQPGQSLTLIATANQGSEATYESGFVIDKFPISRPNLTFSTLTVSNMSPEDSSIYLCSDRGQVVGETQYFGPGTRLLVL
Turning to B1, the binding result in [1] is given as “no recognition”; in test [2], “recognises”; in test [3], “recognises”; in test [4] it was “no recognition”; in test [5], “no recognition”; in test [6], “recognises”. Besides, the binding result in test [7] was “no recognition”; in test [8], “no recognition”; in test [9] it was “recognises”; in test [10], “no recognition”; in test [11], “no recognition”; in test [12], “no recognition”. For the same molecule, the binding result in [13] was “recognises”; in test [14], “no recognition”; in test [15], “no recognition”; in test [16] it was “no recognition”; in test [17], “no recognition”. Moreover, the EC50 of peptide in test [18] was ~0.1 ng/mL.

Values taken from patent US20250025499A1 (published 2025).
